Reference: the supplement of paper PMC9732359
± gives the uncertainty stated by the source.

Assay: protein stability index of a GFP-peptide fusion (yeast GPS) (PSI 1-4); higher = more stable; sorted into four equal gates, so the index is relative within each strain
Summary of the method: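 Sequencing reads from sorted gates were used to score each peptide. The library consisted of tiled 17-residue yeast protein peptides fused downstream of GFP on a Cherry-expressing plasmid, pooled and carried in yeast. Mid-log cultures in leucine-free medium were split into four equal gates by GFP/Cherry ratio, and each gate's plasmids were PCR-amplified and Illumina-sequenced. The protein stability index adds up, over all gates, the read frequency multiplied by the gate number.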

Row | Sequence | protein stability index (doa10∆) | protein stability index (pdr5∆) | protein stability index (san1∆) | protein stability index (ubr1∆)
1 | HELPRYGITHGLTNWAA [RPL5] | 2.44 ± 0.045 | 2.42 ± 0.035 | 2.47 ± 0.048 | 2.25 ± 0.035
2 | ISTRERDYLVDTLKLRE [RRP6] | 3.07 ± 0.076 | 2.72 ± 0.061 | 2.97 ± 0.065 | 3.17 ± 0.06
3 | KSNVIDSMLFVFGFRAN [SMC4] | 2.26 ± 0.049 | 2.39 ± 0.054 | 2.16 ± 0.078 | 2.68 ± 0.059
4 | SEETQFKYVEDRFPLKL [ITC1] | 3.47 ± 0.13 | 3.09 ± 0.13 | 3.27 ± 0.09 | 3.01 ± 0.14
5 | HSRKMNLTRGINLRKVA [RPT6] | 1.26 ± 0.075 | 1.36 ± 0.05 | 1.3 ± 0.11 | 1.2 ± 0.043
6 | IQQVVEYADNDEDKFKK [PRP28] | 3.06 ± 0.072 | 3.03 ± 0.093 | 3.24 ± 0.084 | 3.17 ± 0.047
7 | GEDSTKPLGPCDVFWVQ [POP1] | 3.12 ± 0.094 | 2.97 ± 0.082 | 3.17 ± 0.072 | 2.8 ± 0.057
8 | DVVYALKRQGRTLYGFG [HHF1] | 2.77 ± 0.083 | 2.8 ± 0.11 | 2.34 ± 0.14 | 2.38 ± 0.083
9 | MGIVQDTLCGIRKLTLR [RPO21] | 2.89 ± 0.068 | 1.74 ± 0.053 | 1.87 ± 0.068 | 1.64 ± 0.053
10 | VGSVTYQVDEDVKSSLS [YJL039C/NUP192] | 3.26 ± 0.15 | 3.2 ± 0.13 | 3.29 ± 0.062 | 3.48 ± 0.1
11 | ELTQVPSARQKYMVKGG [UBP6] | 2.6 ± 0.13 | 2.83 ± 0.095 | 2.95 ± 0.1 | 2.96 ± 0.11
12 | TPSSNSNSSELEPDYQA [MED1] | 2.74 ± 0.13 | 2.96 ± 0.16 | 3.35 ± 0.055 | 3.43 ± 0.1
13 | VLSLGRPNLPTHNFKLS [RGR1] | 3.04 ± 0.17 |  |  | 
14 | ASRDKTLISWKLTGDDQ [ASC1] | 1.32 ± 0.14 | 1.68 ± 0.13 |  | 1.61 ± 0.094
15 | MSGGKGGKAGSAAKASQ [HTA1] | 3.18 ± 0.1 | 3.13 ± 0.1 | 2.83 ± 0.1 | 3.24 ± 0.07
16 | TMLENITLRGVENIERV [RPO21] | 3.23 ± 0.12 | 2.86 ± 0.1 | 2.82 ± 0.12 | 2.69 ± 0.058
17 | KCIPKKGTVFQFEIPIS [POP4] | 1.44 ± 0.16 | 1.68 ± 0.087 | 1.49 ± 0.29 | 1.17 ± 0.052
18 | SLTLSFIRHVAKLNYKN [ECM29] | 2.7 ± 0.092 | 2.87 ± 0.088 | 2.91 ± 0.054 | 2.92 ± 0.048
19 | MVVQKYKLSTVVLRLYL [GRR1] | 1.66 ± 0.069 | 1.58 ± 0.049 | 1.38 ± 0.081 | 1.64 ± 0.068
20 | KEIDPSQTTQLAGMDVE [FAS2] | 3.14 ± 0.086 | 3.28 ± 0.11 | 3.15 ± 0.077 | 3.6 ± 0.069
21 | TKTRKHRGHVSAGKGRI [RPL28] | 1.91 ± 0.06 | 2.21 ± 0.062 | 2.09 ± 0.12 | 2.4 ± 0.062
22 | RKSKLNLDNLQKVSQLE [POP4] | 2.89 ± 0.2 |  |  | 
23 | PTNCPLRQFKTCPVEVI [BRR2] | 3 ± 0.093 | 3.17 ± 0.09 | 3.33 ± 0.063 | 2.9 ± 0.066
24 | PLKFKLGPLSYQNMAFI [YJR042W/NUP85] | 2.42 ± 0.064 | 2.55 ± 0.06 | 2.58 ± 0.062 | 2.6 ± 0.049
25 | NMLLDPAANESEVANNG [RRP42] | 2.05 ± 0.082 | 2.74 ± 0.059 | 2.64 ± 0.083 | 2.34 ± 0.042
26 | VTQQKRSLDENRLEIKY [SMC1] | 2.06 ± 0.064 | 2.15 ± 0.096 | 2.12 ± 0.16 | 2.08 ± 0.062
27 | HWLQLAKGVYRPNGRKD [POP1] | 2.68 ± 0.06 | 3.12 ± 0.049 | 3.2 ± 0.034 | 3.15 ± 0.049
28 | ACDPSEIEPILMEIHNI [RGR1] | 2.82 ± 0.13 | 2.74 ± 0.1 | 3.16 ± 0.08 | 2.92 ± 0.067

Row | Sequence | protein stability index (doa10∆) | protein stability index (pdr5∆) | protein stability index (san1∆) | protein stability index (ubr1∆)
29 | NKKIYQWNKLTSFDIKR [POP6] | 2.93 ± 0.074 | 2.95 ± 0.079 | 2.18 ± 0.2 | 3.03 ± 0.083
30 | SPTENGVFDPASYSKYL [RPL22B] | 3.18 ± 0.074 | 3.25 ± 0.083 | 3.05 ± 0.066 | 2.87 ± 0.06
31 | HTKFEVAIGLNGKIWVK [RRP40] | 2.18 ± 0.084 | 2.48 ± 0.065 | 2.39 ± 0.072 | 2.56 ± 0.055
32 | QPQPQPQQQQQHLQFNG [YDL088C/ASM4] | 2.6 ± 0.036 | 2.78 ± 0.038 | 2.5 ± 0.051 | 2.919 ± 0.024
33 | TKNIPITHRDLHYDKDY [SSN8] | 2.65 ± 0.043 | 2.87 ± 0.041 | 2.87 ± 0.03 | 2.83 ± 0.039
34 | TNKISPKDFSPNFTGID [SSN2] | 2.76 ± 0.13 | 1.84 ± 0.11 | 2.9 ± 0.12 | 2.91 ± 0.057
35 | EKIKDIHNTKLPAYSGE [POP1] | 3.09 ± 0.059 | 3.04 ± 0.057 | 2.96 ± 0.048 | 2.79 ± 0.08
36 | CLSPGAFLSKVPEFFQT [SRP14] | 2.73 ± 0.098 | 2.44 ± 0.13 | 2.87 ± 0.17 | 2.6 ± 0.068
37 | RMIPPRMVRSIMWQLLD [SSN3] | 1.95 ± 0.18 | 1.68 ± 0.12 | 1.56 ± 0.11 | 
38 | LVRELYQWRDLIARRDD [RRP6] | 2.96 ± 0.056 | 2.77 ± 0.062 | 2.65 ± 0.055 | 2.25 ± 0.043
39 | TRVHQLMLEDAVTEREV [MCD1] | 3.35 ± 0.22 | 2.92 ± 0.16 | 2.36 ± 0.23 | 2.89 ± 0.12
40 | SRTDAVRCKDCGHRILL [RPC10] | 2.62 ± 0.16 | 3.31 ± 0.19 | 2.66 ± 0.13 | 3.02 ± 0.078
41 | SLNEDVEEIKLQKEKEL [SMC2] |  | 1.83 ± 0.25 |  | 
42 | AGAAGAAAGGDAAEEEK [RPP2B] |  |  |  | 1.27 ± 0.27
43 | NLSVTSPYNADFDGDEM [RPO21] | 2.83 ± 0.063 | 3.14 ± 0.059 | 2.96 ± 0.061 | 3.04 ± 0.042
44 | SSHLSDNDFIINDFKKI [POP5] | 3.06 ± 0.077 | 2.73 ± 0.067 | 2.75 ± 0.055 | 2.74 ± 0.036
45 | KKNNLEFGTYGKYVIAG [RPN14] | 2.51 ± 0.088 | 2.09 ± 0.069 | 1.79 ± 0.14 | 2.1 ± 0.065
46 | TFGIRRNEKIAVHVTVR [RPL11A] | 2.17 ± 0.082 | 1.68 ± 0.076 | 2.12 ± 0.081 | 2.21 ± 0.072
47 | KPYDINVVLVTNDRLNR [DIS3] | 1.69 ± 0.085 | 2.92 ± 0.098 | 2.96 ± 0.094 | 3.08 ± 0.094
48 | DDLPYYVNALADVLYKT [QCR2] | 2.78 ± 0.061 | 2.86 ± 0.052 | 2.63 ± 0.045 | 2.63 ± 0.042
49 | LRKIDMLQKKLVEVEDE [SRB7] | 3.06 ± 0.13 | 3.45 ± 0.11 | 3.42 ± 0.18 | 3.36 ± 0.1
50 | DIKVLKRQLIKERNQKF [YIL149C/MLP2] | 2.7 ± 0.084 | 2.62 ± 0.084 | 2.5 ± 0.091 | 2.41 ± 0.039
51 | TLFSSIEPQVINYLALN [ECM29] | 2.31 ± 0.07 | 2.64 ± 0.096 | 2.29 ± 0.21 | 2.09 ± 0.082
52 | KILITYGSSPKLLATST [SRB8] | 1.22 ± 0.039 | 1.33 ± 0.039 | 1.48 ± 0.091 | 1.53 ± 0.042
53 | LTSNISSLVRSCGEEEF [REC8] | 3.33 ± 0.17 | 2.78 ± 0.13 | 2.21 ± 0.13 | 3.25 ± 0.13
54 | EMAEKIDFTLLNRLLRL [PRP8] | 2.72 ± 0.058 | 2.93 ± 0.058 | 2.57 ± 0.054 | 2.37 ± 0.049
55 | MMVNISVLISIPLDNYD [PCI8] | 1.43 ± 0.038 | 1.42 ± 0.044 | 1.72 ± 0.065 | 1.41 ± 0.037
